Assay results taken from patent CN115232208A (SHANGHAI JUNSHI BIOSCIENCES CO LTD; JUNMENG BIOSCIENCES CO …, dated 2022).
Residue numbers refer to the chain shown, from its start.

B1: H482L472 (antibody, human IgG1, kappa, V domains shown)
VH: EVQLVESGGGLVQPGGSLRLSCAASGFTFSDAWMDWVRQAPGKGLEWVGEIRNKANNHATYQAESVKGRFTISRDDSKNSVYLQMNSLKTEDTAVYYCTRAPFDLLVRRGYYIMDYWGQGTLVTVSS
VL: DIQMTQSPSSLSASVGDRVTITCRTSQDISIYLNWYQQKPGKAPKLLIYYTSRLRSGVPSRFSGSGSGTDFTLTISSLQPEDFATYFCQQGSTLPWTFGGGTKLEIKR
notes: also called UBP1213sc (its formulation); UBP1213
B2: H483L473 (antibody, human IgG1, kappa, V domains shown)
VH: B1 VH with Q13K, N79S, S80T
VL: B1 VL with L73F, F83I
B3: H484L474 (antibody, human IgG1, kappa, V domains shown)
VH: B1 VH with G49A, N79S, K89R, T90A
VL: B1 VL with L11V

These binders were tested against T1, 重组人BLyS蛋白 (recombinant human BLyS protein) (human, UniProt Q9Y275 134-285) (assay: Blocking ELISA, human BLyS coated, competition with human BR3).
T1 construct: Recombinant human BLyS coated on hydrophobic ELISA plates; also called B淋巴细胞刺激因子; BAFF
T1 sequence (Q9Y275 134-285 limits assumed): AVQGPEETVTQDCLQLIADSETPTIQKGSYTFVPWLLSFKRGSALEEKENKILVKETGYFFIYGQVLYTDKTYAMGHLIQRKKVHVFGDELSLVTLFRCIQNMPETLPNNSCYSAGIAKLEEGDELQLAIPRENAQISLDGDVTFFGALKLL

How did the IC50 turn out when B1 was run?
Its IC50 is 1.24 µg/mL.

For B2, which IC50 is on record?
The IC50 was 0.858 µg/mL.

With B3 as the binder, how does the IC50 read?
The IC50 was 1.27 µg/mL.

The binders below were run against 人可溶性BLyS (human soluble BLyS) (human, UniProt Q9Y275 134-285) (assay: cell-based or functional assay).
Chain of 人可溶性BLyS (human soluble BLyS) (Q9Y275 134-285 limits assumed): as above

With B1 as the binder, how does the “IC50 of inhibition of the NF-κB signal downstream of human BLyS binding TACI (luciferase reporter gene assay)” value read?
Its value is 0.0376 µg/mL.

With B2 as the binder, how does the “IC50 of inhibition of the NF-κB signal downstream of human BLyS binding TACI (luciferase reporter gene assay)” value read?
Its value is 0.0293 µg/mL.

With B3 as the binder, how does the “IC50 of inhibition of the NF-κB signal downstream of human BLyS binding TACI (luciferase reporter gene assay)” value read?
The value was 0.0315 µg/mL.
